Laboratory results reported in IntAct's records for PubMed 15935762.

B1: Protein pop-1 (Caenorhabditis elegans), Q10666 (parent)
chain: MMADEELGDEVKVFRRDEDADDDPMISGETSEQQLADDKKEAVMEAELDGAGRNPSIDVLKSAFPKVEPMSPSFPGLMSHFSPGYSAAALPMFMPLFMNPYAAALRSPSLMFPMGAMSPTFPMFPPSPVYGAAIAAAAAKQHFENMAPLNMRAGHPMNQMGMPPYMHPSSMAPQNVDRRAQGGGKAKKDDHVKKPLNAFMWFMKENRKALLEEIGNNEKQSAELNKELGKRWHDLSKEEQAKYFEMAKKDKETHKERYPEWSARENYAVNKKKTKKRRDKSIPSENNDQKKCRARFGVNNTEMWCKFCKRKKKCEYATDRSGGSDITDSQDGRGTSGAYSSSSESPSPKANAGIALTTQQQQAAMMHTMLMQMRLGSTTGASTHVPSPLASSSAGRSPLDANASDSESDVEEEEDEQIDPTVMQQTHDMLMQESMCTI
partner: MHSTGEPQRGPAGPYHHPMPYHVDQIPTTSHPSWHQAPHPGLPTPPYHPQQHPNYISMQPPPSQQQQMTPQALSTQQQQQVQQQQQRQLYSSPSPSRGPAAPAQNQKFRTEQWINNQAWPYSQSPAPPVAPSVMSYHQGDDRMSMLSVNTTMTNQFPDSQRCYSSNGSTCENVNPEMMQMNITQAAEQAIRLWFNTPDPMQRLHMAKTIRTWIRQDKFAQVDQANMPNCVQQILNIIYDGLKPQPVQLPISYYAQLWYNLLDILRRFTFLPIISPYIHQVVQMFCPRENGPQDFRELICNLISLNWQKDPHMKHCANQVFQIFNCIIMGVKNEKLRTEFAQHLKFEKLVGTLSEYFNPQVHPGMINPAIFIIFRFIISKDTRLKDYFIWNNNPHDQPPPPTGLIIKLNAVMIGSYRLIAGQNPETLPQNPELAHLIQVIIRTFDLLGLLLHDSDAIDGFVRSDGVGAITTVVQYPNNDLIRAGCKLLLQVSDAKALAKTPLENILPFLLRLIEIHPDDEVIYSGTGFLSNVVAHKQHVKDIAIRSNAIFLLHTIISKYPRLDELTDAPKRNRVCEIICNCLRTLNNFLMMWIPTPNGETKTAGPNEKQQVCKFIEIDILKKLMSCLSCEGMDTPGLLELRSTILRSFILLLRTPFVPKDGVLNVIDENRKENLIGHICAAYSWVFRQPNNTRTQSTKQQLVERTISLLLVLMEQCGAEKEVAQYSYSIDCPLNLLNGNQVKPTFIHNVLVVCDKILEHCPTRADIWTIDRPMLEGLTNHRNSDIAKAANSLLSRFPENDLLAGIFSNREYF
B2: Protein pop-1 (Caenorhabditis elegans), Q10666 (parent)
chain: B1 chain
partner: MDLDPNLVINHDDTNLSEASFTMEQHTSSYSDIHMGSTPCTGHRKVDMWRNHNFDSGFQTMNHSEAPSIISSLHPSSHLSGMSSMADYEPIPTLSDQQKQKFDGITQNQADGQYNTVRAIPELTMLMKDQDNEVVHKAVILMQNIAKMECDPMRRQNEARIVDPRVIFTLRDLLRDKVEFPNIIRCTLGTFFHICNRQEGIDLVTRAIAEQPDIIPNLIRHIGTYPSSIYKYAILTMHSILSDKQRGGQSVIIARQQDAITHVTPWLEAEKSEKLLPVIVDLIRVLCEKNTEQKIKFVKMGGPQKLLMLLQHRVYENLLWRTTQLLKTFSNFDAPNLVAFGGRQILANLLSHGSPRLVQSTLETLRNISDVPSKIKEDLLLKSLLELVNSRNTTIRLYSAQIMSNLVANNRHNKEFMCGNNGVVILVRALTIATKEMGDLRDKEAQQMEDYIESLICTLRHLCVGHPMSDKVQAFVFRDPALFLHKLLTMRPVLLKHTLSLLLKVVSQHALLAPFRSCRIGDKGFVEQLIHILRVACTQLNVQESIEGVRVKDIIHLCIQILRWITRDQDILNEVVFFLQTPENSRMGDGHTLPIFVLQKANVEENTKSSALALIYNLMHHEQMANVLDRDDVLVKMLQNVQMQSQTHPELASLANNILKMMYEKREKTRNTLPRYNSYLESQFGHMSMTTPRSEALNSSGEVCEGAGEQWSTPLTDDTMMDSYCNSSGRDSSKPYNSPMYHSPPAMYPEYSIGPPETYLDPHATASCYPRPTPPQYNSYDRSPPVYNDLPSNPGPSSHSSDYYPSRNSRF

Variants of: B1
Settings: with ctnh1_caeel sys-1, Q9XVI2

Variant	effect of a mutation on the interaction
MMADEELGEEVKVFRRDEDADDDPMISGETSEQQLADDKKEAVMEAELDGAGRNPSIDVLKSAFPKVEPMSPSFPGLMSHFSPGYSAAALPMFMPLFMNPYAAALRSPSLMFPMGAMSPTFPMFPPSPVYGAAIAAAAAKQHFENMAPLNMRAGHPMNQMGMPPYMHPSSMAPQNVDRRAQGGGKAKKDDHVKKPLNAFMWFMKENRKALLEEIGNNEKQSAELNKELGKRWHDLSKEEQAKYFEMAKKDKETHKERYPEWSARENYAVNKKKTKKRRDKSIPSENNDQKKCRARFGVNNTEMWCKFCKRKKKCEYATDRSGGSDITDSQDGRGTSGAYSSSSESPSPKANAGIALTTQQQQAAMMHTMLMQMRLGSTTGASTHVPSPLASSSAGRSPLDANASDSESDVEEEEDEQIDPTVMQQTHDMLMQESMCTI [D9E]	disrupting interaction strength

Variants of: B2
Settings: with bar1_caeel bar-1, Q18825

Variant	effect of a mutation on the interaction
MMADEELGEEVKVFRRDEDADDDPMISGETSEQQLADDKKEAVMEAELDGAGRNPSIDVLKSAFPKVEPMSPSFPGLMSHFSPGYSAAALPMFMPLFMNPYAAALRSPSLMFPMGAMSPTFPMFPPSPVYGAAIAAAAAKQHFENMAPLNMRAGHPMNQMGMPPYMHPSSMAPQNVDRRAQGGGKAKKDDHVKKPLNAFMWFMKENRKALLEEIGNNEKQSAELNKELGKRWHDLSKEEQAKYFEMAKKDKETHKERYPEWSARENYAVNKKKTKKRRDKSIPSENNDQKKCRARFGVNNTEMWCKFCKRKKKCEYATDRSGGSDITDSQDGRGTSGAYSSSSESPSPKANAGIALTTQQQQAAMMHTMLMQMRLGSTTGASTHVPSPLASSSAGRSPLDANASDSESDVEEEEDEQIDPTVMQQTHDMLMQESMCTI [D9E]	decreasing interaction strength
